A word on the Kd: it is the free concentration of one partner at which half of the binding sites on the other are occupied at equilibrium, for simple one-to-one binding. Lower therefore signals tighter binding.

For test [1], the target named is T1, Human siglec-6 (BLI analyte) (human, UniProt O43699 27-347, limits assumed).
T1 construct: also called human siglect-6
Briefly: BLI (Octet), antibody on capture sensor. The procedure:
Further, binding affinities of siglec-6 antibodies to human siglec-6 were measured by […] using an Octect instrument. Briefly, capture sensors were loaded with test antibodies with 3-fold dilutions. The association and dissociation rates to were determined and used to calculate the equilibrium dissociation constant KD (Table 6).
On the technique in general: In BLI a coated tip is dipped into the sample, and binding shifts an interference pattern.

Test [2] deals with T2, siglec 1 expressed on HEK293 cells (UniProt Q9BZZ2 20-1709, limits assumed).
T2 construct: whole, on cells; also called Siglec-6 family member
T2 sequence (Q9BZZ2 20-1709 limits assumed): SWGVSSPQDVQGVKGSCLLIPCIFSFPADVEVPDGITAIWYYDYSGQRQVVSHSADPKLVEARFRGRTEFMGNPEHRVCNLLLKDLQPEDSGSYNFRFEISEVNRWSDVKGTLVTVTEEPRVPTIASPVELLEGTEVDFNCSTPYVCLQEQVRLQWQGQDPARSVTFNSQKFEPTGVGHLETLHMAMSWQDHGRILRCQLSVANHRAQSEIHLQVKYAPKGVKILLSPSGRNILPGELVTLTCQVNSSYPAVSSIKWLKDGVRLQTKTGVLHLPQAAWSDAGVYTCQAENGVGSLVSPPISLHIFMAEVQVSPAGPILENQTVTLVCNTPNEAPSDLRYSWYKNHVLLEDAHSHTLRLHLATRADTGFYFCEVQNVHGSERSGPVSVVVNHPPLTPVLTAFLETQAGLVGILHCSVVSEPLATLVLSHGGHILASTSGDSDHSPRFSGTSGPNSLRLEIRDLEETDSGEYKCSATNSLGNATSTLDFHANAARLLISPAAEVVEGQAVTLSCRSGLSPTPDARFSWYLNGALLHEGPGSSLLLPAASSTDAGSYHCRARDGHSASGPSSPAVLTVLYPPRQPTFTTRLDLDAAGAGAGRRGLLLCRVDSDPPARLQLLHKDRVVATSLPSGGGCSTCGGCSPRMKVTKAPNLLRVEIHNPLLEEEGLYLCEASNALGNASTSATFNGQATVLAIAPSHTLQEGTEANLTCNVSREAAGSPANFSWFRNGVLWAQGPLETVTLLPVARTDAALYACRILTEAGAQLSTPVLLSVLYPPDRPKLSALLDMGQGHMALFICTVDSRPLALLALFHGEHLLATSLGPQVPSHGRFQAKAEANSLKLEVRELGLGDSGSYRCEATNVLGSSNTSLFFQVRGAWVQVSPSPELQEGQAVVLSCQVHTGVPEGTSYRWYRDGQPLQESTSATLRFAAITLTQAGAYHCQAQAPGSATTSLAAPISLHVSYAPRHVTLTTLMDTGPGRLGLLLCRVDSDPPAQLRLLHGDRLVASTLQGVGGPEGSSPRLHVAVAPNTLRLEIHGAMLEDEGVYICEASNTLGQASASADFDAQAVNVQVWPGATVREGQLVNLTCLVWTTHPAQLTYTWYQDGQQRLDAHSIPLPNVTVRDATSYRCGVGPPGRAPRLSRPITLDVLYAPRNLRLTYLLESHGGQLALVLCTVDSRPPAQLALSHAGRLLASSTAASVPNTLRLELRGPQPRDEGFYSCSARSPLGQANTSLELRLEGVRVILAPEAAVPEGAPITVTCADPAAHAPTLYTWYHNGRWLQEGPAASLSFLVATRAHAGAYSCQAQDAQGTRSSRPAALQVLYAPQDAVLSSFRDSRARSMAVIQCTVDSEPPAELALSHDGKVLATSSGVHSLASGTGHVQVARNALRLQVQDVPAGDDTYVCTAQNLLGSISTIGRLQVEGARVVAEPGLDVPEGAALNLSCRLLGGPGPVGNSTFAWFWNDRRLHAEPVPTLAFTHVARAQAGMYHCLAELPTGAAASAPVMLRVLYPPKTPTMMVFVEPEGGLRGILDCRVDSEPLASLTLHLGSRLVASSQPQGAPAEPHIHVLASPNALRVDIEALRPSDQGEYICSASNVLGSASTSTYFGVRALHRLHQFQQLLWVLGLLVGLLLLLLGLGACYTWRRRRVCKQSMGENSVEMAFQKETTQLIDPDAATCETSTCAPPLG
Briefly: flow cytometry on HEK293 cells expressing the target. The procedure: (§1) Cultured HEK293 cells expressing human siglec-6, cynomolgus siglec-6, or siglec 6 family members were resuspended in FACS Blocking Buffer (PBS+10% normal human serum) for 30 minutes. Following washing, cells were incubated with siglec-6 antibodies in FACS Buffer (PBS+0.5% bovine serum albumin+0.09% sodium azide) and incubated at 4° C. for 30 minutes, washed and incubated with PE-labeled anti-human secondary antibody. Cells were incubated at 4° C. for 30 minutes in the dark. Following washing, cytofluorimetric analysis was conducted using a BD FACS Symphony A3 (BD Biosciences). Cells were sorted by scatter properties and separated for single cell analysis using side scatter width vs side scatter area. Antibody binding to cells was quantitated by measuring fluorescent emissions of excitation wavelength of 561 nm using a 586/15 nm filter. Data analysis was performed using FlowJo Software.
(In flow cytometry, cells or beads pass a laser one at a time.)

The target of test [3] is T3, siglec 5 expressed on HEK293 cells (UniProt O15389 17-551, limits assumed).
T3 construct: whole, on cells; also called Siglec-6 family member
T3 sequence (looked up): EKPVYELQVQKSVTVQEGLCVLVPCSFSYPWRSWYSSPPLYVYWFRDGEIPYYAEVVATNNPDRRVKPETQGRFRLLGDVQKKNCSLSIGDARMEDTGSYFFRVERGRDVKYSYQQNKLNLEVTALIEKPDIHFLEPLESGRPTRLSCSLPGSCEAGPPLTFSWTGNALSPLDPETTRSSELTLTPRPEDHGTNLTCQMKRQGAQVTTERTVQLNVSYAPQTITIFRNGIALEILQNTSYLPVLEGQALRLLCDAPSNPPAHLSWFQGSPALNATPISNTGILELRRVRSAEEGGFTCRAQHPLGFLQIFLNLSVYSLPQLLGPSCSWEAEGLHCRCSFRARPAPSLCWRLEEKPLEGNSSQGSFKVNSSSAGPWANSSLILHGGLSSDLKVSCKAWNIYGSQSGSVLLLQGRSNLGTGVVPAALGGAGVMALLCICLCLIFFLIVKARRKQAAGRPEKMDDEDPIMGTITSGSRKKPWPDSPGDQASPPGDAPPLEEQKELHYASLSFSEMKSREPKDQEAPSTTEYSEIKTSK
The test is described as above. How it is done:
as §1

Test [4] deals with T4, siglec 8 expressed on HEK293 cells (UniProt Q9NYZ4 17-499, limits assumed).
T4 construct: whole, on cells; also called Siglec-6 family member
T4 sequence (Q9NYZ4 17-499 limits assumed): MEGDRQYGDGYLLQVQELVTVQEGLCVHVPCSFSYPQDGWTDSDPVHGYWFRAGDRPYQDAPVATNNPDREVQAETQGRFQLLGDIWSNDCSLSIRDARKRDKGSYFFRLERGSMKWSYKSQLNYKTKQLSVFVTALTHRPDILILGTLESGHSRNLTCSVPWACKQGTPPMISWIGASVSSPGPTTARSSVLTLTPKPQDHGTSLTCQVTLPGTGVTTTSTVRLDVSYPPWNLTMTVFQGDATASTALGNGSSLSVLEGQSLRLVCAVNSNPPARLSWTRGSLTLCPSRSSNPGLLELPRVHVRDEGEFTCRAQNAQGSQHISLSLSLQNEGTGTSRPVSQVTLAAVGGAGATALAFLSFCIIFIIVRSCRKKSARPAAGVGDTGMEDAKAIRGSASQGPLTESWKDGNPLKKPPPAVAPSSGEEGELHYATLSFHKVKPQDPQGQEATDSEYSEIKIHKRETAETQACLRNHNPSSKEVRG
The test is described as above. The procedure:
as §1

The target in test [5] is T5, siglec 9 expressed on HEK293 cells (UniProt Q9Y336 18-463, limits assumed).
T5 construct: whole, on cells; also called Siglec-6 family member
T5 sequence (Q9Y336 18-463 limits assumed): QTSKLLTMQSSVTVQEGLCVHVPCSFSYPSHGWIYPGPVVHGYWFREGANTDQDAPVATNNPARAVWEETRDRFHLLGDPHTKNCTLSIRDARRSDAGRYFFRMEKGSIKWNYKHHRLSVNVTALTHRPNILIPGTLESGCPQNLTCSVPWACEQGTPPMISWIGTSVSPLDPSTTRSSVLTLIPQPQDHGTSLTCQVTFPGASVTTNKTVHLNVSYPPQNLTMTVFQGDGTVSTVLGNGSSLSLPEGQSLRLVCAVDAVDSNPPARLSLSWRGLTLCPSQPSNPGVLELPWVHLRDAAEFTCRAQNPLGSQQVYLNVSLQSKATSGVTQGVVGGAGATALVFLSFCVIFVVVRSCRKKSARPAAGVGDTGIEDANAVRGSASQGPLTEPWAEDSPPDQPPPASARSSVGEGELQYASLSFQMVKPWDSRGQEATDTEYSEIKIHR
The description is as above. How it is done:
as §1

The target of test [6] is T6, siglec 10 expressed on HEK293 cells (UniProt Q96LC7 17-697, limits assumed).
T6 construct: whole, on cells; also called Siglec-6 family member
T6 sequence (looked up): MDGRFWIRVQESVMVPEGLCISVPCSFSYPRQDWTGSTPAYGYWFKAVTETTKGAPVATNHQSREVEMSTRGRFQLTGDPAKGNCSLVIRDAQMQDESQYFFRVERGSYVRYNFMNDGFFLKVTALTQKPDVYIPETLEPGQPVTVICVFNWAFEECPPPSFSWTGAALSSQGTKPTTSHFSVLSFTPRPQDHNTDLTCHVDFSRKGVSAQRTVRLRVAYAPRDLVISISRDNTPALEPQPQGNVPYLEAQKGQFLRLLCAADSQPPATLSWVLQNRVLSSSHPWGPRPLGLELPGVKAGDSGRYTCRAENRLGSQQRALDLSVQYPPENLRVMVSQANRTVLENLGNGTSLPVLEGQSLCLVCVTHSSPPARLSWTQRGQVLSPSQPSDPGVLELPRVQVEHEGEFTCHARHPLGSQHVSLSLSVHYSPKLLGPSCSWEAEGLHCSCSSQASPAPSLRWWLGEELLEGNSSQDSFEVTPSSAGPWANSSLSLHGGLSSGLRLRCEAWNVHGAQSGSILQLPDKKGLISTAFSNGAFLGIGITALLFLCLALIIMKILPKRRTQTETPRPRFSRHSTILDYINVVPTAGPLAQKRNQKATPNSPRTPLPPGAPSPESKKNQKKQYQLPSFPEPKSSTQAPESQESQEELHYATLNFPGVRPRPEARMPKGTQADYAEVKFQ
Described as above. The procedure:
as §1

Test [7] has as its target T7, siglec 12 expressed on HEK293 cells (UniProt Q96PQ1 19-595, limits assumed).
T7 construct: whole, on cells; also called Siglec-6 family member
The test is described as above. How it is done:
as §1

Test [8] concerns the target T8, siglec 14 expressed on HEK293 cells (UniProt Q08ET2 17-396, limits assumed).
T8 construct: whole, on cells; also called Siglec-6 family member
T8 sequence (looked up): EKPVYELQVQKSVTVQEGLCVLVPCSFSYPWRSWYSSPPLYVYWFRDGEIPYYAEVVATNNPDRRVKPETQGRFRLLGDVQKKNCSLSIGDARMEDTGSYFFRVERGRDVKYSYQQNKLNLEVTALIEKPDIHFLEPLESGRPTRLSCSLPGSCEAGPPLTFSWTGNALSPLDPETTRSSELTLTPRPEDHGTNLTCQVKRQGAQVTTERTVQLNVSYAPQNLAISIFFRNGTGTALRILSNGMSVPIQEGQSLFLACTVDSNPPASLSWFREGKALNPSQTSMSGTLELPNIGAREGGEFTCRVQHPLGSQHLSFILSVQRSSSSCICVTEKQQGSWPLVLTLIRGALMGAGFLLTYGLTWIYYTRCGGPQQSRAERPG
Described as above. The procedure:
as §1

The target of test [9] is T9, siglec 15 expressed on HEK293 cells (UniProt Q6ZMC9 20-328, limits assumed).
T9 construct: whole, on cells; also called Siglec-6 family member
T9 sequence (looked up): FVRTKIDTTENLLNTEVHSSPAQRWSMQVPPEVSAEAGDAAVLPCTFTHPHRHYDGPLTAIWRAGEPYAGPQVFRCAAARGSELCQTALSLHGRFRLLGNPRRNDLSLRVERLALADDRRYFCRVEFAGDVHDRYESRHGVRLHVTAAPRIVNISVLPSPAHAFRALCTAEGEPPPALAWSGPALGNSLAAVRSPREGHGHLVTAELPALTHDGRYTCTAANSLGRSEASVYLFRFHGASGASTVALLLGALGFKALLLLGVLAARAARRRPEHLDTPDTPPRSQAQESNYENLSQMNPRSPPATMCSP
The test is described as above. The procedure: as §1

T7 sequence (Q96PQ1 19-595 limits assumed): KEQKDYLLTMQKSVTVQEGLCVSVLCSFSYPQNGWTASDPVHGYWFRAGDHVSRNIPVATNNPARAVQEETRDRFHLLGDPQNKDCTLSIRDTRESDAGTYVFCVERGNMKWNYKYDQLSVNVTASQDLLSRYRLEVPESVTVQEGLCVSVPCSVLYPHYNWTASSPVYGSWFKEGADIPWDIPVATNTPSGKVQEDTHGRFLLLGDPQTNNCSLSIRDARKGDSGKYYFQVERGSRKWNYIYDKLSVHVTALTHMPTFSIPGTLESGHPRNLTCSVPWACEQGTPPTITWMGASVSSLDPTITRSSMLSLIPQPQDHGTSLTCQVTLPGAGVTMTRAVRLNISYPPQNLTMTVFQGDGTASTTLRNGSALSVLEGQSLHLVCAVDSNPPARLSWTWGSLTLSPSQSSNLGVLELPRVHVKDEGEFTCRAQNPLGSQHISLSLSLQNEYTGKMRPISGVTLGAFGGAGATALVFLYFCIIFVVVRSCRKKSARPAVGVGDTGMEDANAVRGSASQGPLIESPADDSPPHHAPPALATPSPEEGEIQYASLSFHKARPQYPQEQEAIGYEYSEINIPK
T1 sequence (O43699 27-347 limits assumed): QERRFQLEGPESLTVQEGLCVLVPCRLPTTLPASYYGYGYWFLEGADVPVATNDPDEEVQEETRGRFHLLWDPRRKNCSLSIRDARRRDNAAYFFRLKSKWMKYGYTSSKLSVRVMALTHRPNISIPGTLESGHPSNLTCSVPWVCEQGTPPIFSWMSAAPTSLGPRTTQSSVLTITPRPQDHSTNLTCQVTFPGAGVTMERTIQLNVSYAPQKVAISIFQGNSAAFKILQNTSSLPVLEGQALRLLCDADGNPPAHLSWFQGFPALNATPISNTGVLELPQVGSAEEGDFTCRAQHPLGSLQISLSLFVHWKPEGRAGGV

B1: hRND-2 (antibody, human IgG1, kappa, V domains shown)
VH: QVQLVQSGAEVKKPGASVKVSCKASGYAFTSYWMHWVRQAPGQRLEWMGEIYPTNGGTTYAQKFQGRVTMTVDKSTSTAYMELSRLRSDDTAVYYCTIEDFYAMDYWGQGTTVTVSS
VL: DIVMTQTPLSLSVTPGQPASISCKSSQSLLDSDGKTSLNWLLQKPGQSPQRLIYLVSKLDSGVPDRFSGSGSGTDFTLKISRVEAEDVGVYYCWQGTHFPYTFGQGTKLEIKR
notes: also called humanized RND-2; hRND-H2 / hRND-L3; copies: 2 + 2
In test [1], B1 registered a Kd of 0.17 nM. For the same molecule, the binding result in test [2], in [3], in test [4], in test [5], in test [6] and in test [7] was “no binding” in each case. Further, the binding result in test [8] and in test [9] was “no binding” in each case.

B2: hRND-5 (antibody, human IgG1, kappa, V domains shown)
VH: QVQLVQSGAEVKKPGASVKLSCKASGYAFTSYWMHWVRQAPGQRLEWIGEIYPTNGGTTYNEKFKRRATLTVDKSTSTAYMELSRLRSDDTAVYYCTIEDFYAMDYWGQGTTVTVSS
VL: DIVMTQTPLSLSVTPGQPASISCKSSQSLLDSDGKTSLNWLLQKPGQSPQRLIYLVSKLDSGVPDRFSGSGSGTDFTLKISRVEAEDVGVYYCWQGTHFPYTFGQGTKLEIKR
notes: also called humanized RND-5; hRND-H3b / hRND-L3; copies: 2 + 2
Take B2: in test [1], the Kd amounted to 0.166 nM. Moreover, the binding result in test [2], in [3], in test [4], in test [5], in test [6] and in test [7] was “no binding” in each case. Besides, the binding result in test [8] and in test [9] was “no binding” in each case.

B3: hRND-4 (antibody, human IgG1, kappa, V domains shown)
VH: QVQLVQSGAEVKKPGASVKVSCKASGYAFTSYWMHWVRQAPGQRLEWMGEIYPTNGGTTYNEKFKRRVTMTVDKSTSTAYMELSRLRSDDTAVYYCTIEDFYAMDYWGQGTTVTVSS
VL: DIVMTQTPLSLSVTPGQPASISCKSSQSLLDSDGKTSLNWLLQKPGQSPQRLIYLVSKLDSGVPDRFSGSGSGTDFTLKISRVEAEDVGVYYCWQGTHFPYTFGQGTKLEIKR
notes: also called humanized RND-4; hRND-H2b / hRND-L3; copies: 2 + 2
Regarding B3, in test [1], the Kd stood at 0.315 nM. The binding result in [2], in test [3], in test [4], in [5], in [6] and in [7] was “no binding” each time. For the same molecule, the binding result in [8] and in [9] was “no binding” each time.

B4: hRND-3 (antibody, human IgG1, kappa, V domains shown)
VH: QVQLVQSGAEVKKPGASVKLSCKASGYAFTSYWMHWVRQAPGQRLEWIGEIYPTNGGTTYAQKFQGRATLTVDKSTSTAYMELSRLRSDDTAVYYCTIEDFYAMDYWGQGTTVTVSS
VL: DIVMTQTPLSLSVTPGQPASISCKSSQSLLDSDGKTSLNWLLQKPGQSPQRLIYLVSKLDSGVPDRFSGSGSGTDFTLKISRVEAEDVGVYYCWQGTHFPYTFGQGTKLEIKR
notes: also called humanized RND-3; hRND-H3 / hRND-L3; copies: 2 + 2
In turn, B4 gave a Kd in test [1] of 0.137 nM. Also, the binding result in test [2], in test [3], in [4], in test [5], in [6] and in test [7] was “no binding” each time. In addition, the binding result in test [8] and in test [9] was “no binding” in each case.

(Values after patent US20260070975A1 (SANTA ANA BIO, published 2026).)
